From paper PMC8502153, “Two adjacent C-terminal mutations enable expression of aryl-alcohol oxidase from Pleurotus eryngii in Pichia pastoris” (Applied Microbiology and Biotechnology, 2021)

Assays:
PeAAO1 [1] = molecular target: T1, PeAAO1 (Pleurotus eryngii, UniProt O94219, V367A/K583E/Q584R); experiment: flavin absorption spectrum; FAD released on heat denaturation; assay type: binding; conditions: non-covalently bound; absorbance maxima 463 and 383 nm
T1 construct: gene aao; secreted glycoprotein from P. pastoris X-33 (codon-optimised gene in pPICZA); signal peptide removed; theoretical 61 kDa, about 100 kDa on SDS-PAGE, 70 kDa deglycosylated; only mutants expressed (ER, NER, AER)

PeAAO1 [2] = molecular target: T2, PeAAO1 (Pleurotus eryngii, UniProt O94219, K583E/Q584R); experiment: as above; assay type: binding; conditions: non-covalently bound; absorbance maxima 463 and 383 nm
T2 construct: gene aao; secreted glycoprotein from P. pastoris X-33 (codon-optimised gene in pPICZA); signal peptide removed; theoretical 61 kDa, about 100 kDa on SDS-PAGE, 70 kDa deglycosylated; only mutants expressed (ER, NER, AER)

PeAAO1 [3] = molecular target: T3, PeAAO1 (Pleurotus eryngii, UniProt O94219, D361N/K583E/Q584R); experiment: as above; assay type: binding; conditions: non-covalently bound; absorbance maxima 463 and 383 nm
T3 construct: gene aao; secreted glycoprotein from P. pastoris X-33 (codon-optimised gene in pPICZA); signal peptide removed; theoretical 61 kDa, about 100 kDa on SDS-PAGE, 70 kDa deglycosylated; only mutants expressed (ER, NER, AER)

purified protein = substrate: COc1ccc(CO)cc1OC; experiment: purified protein; assay type: biochemical, Pleurotus eryngii; conditions: 100 mM sodium phosphate pH 6, 25 °C, O2 as co-substrate, glycosylated enzyme

Molecule	flavin absorption spectrum; FAD released on heat denaturation (PeAAO1 [1])	flavin absorption spectrum; FAD released on heat denaturation (PeAAO1 [2])	flavin absorption spectrum; FAD released on heat denaturation (PeAAO1 [3])	Km (purified protein) [µM]	kcat (purified protein) [s⁻¹]	kcat/Km (purified protein) [M⁻¹ s⁻¹]
Cc1cc2nc3c(=O)[nH]c(=O)nc-3n(C[C@H](O)[C@H](O)[C@H](O)COP(=O)(O)OP(=O)(O)OC[C@H]3O[C@@H](n4cnc5c(N)ncnc54)[C@H](O)[C@@H]3O)c2cc1C [FAD]	calculated based on absorbance of the released FAD after heat precipitation of the apoprotein	calculated based on absorbance of the released FAD after heat precipitation of the apoprotein	calculated based on absorbance of the released FAD after heat precipitation of the apoprotein			
PeAAO1 (Pleurotus eryngii; K583E/Q584R) (protein, secreted glycoprotein from P. pastoris X-33 (codon-optimised gene in pPICZA); signal peptide removed; theoretical 61 kDa, about 100 kDa on SDS-PAGE, 70 kDa deglycosylated; only mutants expressed (ER, NER, AER)) ADFDYVVVGAGNAGNVVAARLTEDPDVSVLVLEAGVSDENVLGAEAPLLAPGLVPNSIFDWNYTTTAQAGYNGRSIAYPRGRMLGGSSSVHYMVMMRGSTEDFDRYAAVTGDEGWNWDNIQQFVRKNEMVVPPADNHNTSGEFIPAVHGTNGSVSISLPGFPTPLDDRVLATTQEQSEEFFFNPDMGTGHPLGISWSIASVGNGQRSSSSTAYLRPAQSRPNLSVLINAQVTKLVNSGTTNGLPAFRCVEYAEQEGAPTTTVCAKKEVVLSAGSVGTPILLQLSGIGDENDLSSVGIDTIVNNPSVGRNLSDHLLLPAAFFVNSNQTFDNIFRDSSEFNVDLDQWTNTRTGPLTALIANHLAWLRLPSNSSIFQTFPDPAAGPNSAHWETIFSNQWFHPAIPRPDTGSFMSVTNALISPVARGDIKLATSNPFDKPLINPQYLSTEFDIFTMIQAVKSNLRFLSGQAWADFVIRPFDPRLRDPTDDAAIESYIRDNANTIFHPVGTASMSPRGASWGVVDPDLKVKGVDGLRIVDGSILPFAPNAHTQGPIYLVGERGADLIKADQ				549.0 ± 12.6	54.9 ± 0.02	100000
PeAAO1 (Pleurotus eryngii; D361N/K583E/Q584R) (protein, secreted glycoprotein from P. pastoris X-33 (codon-optimised gene in pPICZA); signal peptide removed; theoretical 61 kDa, about 100 kDa on SDS-PAGE, 70 kDa deglycosylated; only mutants expressed (ER, NER, AER)) ADFDYVVVGAGNAGNVVAARLTEDPDVSVLVLEAGVSDENVLGAEAPLLAPGLVPNSIFDWNYTTTAQAGYNGRSIAYPRGRMLGGSSSVHYMVMMRGSTEDFDRYAAVTGDEGWNWDNIQQFVRKNEMVVPPADNHNTSGEFIPAVHGTNGSVSISLPGFPTPLDDRVLATTQEQSEEFFFNPDMGTGHPLGISWSIASVGNGQRSSSSTAYLRPAQSRPNLSVLINAQVTKLVNSGTTNGLPAFRCVEYAEQEGAPTTTVCAKKEVVLSAGSVGTPILLQLSGIGDENDLSSVGIDTIVNNPSVGRNLSDHLLLPAAFFVNSNQTFDNIFRNSSEFNVDLDQWTNTRTGPLTALIANHLAWLRLPSNSSIFQTFPDPAAGPNSAHWETIFSNQWFHPAIPRPDTGSFMSVTNALISPVARGDIKLATSNPFDKPLINPQYLSTEFDIFTMIQAVKSNLRFLSGQAWADFVIRPFDPRLRDPTDDAAIESYIRDNANTIFHPVGTASMSPRGASWGVVDPDLKVKGVDGLRIVDGSILPFAPNAHTQGPIYLVGERGADLIKADQ				546.7 ± 5.8	68.2 ± 0.05	125000
PeAAO1 (Pleurotus eryngii; K583E/Q584R/V367A) (protein, secreted glycoprotein from P. pastoris X-33 (codon-optimised gene in pPICZA); signal peptide removed; theoretical 61 kDa, about 100 kDa on SDS-PAGE, 70 kDa deglycosylated; only mutants expressed (ER, NER, AER)) ADFDYVVVGAGNAGNVVAARLTEDPDVSVLVLEAGVSDENVLGAEAPLLAPGLVPNSIFDWNYTTTAQAGYNGRSIAYPRGRMLGGSSSVHYMVMMRGSTEDFDRYAAVTGDEGWNWDNIQQFVRKNEMVVPPADNHNTSGEFIPAVHGTNGSVSISLPGFPTPLDDRVLATTQEQSEEFFFNPDMGTGHPLGISWSIASVGNGQRSSSSTAYLRPAQSRPNLSVLINAQVTKLVNSGTTNGLPAFRCVEYAEQEGAPTTTVCAKKEVVLSAGSVGTPILLQLSGIGDENDLSSVGIDTIVNNPSVGRNLSDHLLLPAAFFVNSNQTFDNIFRDSSEFNADLDQWTNTRTGPLTALIANHLAWLRLPSNSSIFQTFPDPAAGPNSAHWETIFSNQWFHPAIPRPDTGSFMSVTNALISPVARGDIKLATSNPFDKPLINPQYLSTEFDIFTMIQAVKSNLRFLSGQAWADFVIRPFDPRLRDPTDDAAIESYIRDNANTIFHPVGTASMSPRGASWGVVDPDLKVKGVDGLRIVDGSILPFAPNAHTQGPIYLVGERGADLIKADQ				541.9 ± 6.4	58.5 ± 0.03	108000
